Measurements taken from the nanobody polyreactivity screen of Harvey et al. (2022).

Assay: yeast display, Sf9 membrane polyspecificity reagent, FACS + sequencing; frameworks hold sequencing errors
In short: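 Polyreactivity labels are assigned by the sorting gate from which each nanobody was recovered. The gates were low and high (top ~1%), set on anti-HA fluorescence for expression and streptavidin fluorescence for reagent binding. Before sorting, galactose-induced (36–48 hours) yeast display cells were stained for 1 hour at 4 °C with 10% biotinylated, detergent-solubilized Sf9 membrane reagent.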

Sequence	polyreactivity (PSR sort gate)
QVQLVESGGGLVQAGGSLRISCAASGSTYRKYTMGWYRQAPGNERDLVATISWSGGSTNYADSVKGRFTISRDNAKTIVYLQMISLKPDDTAVYYCNAYVSPRYRGSRYYYWGQGTQVTVSS	high polyreactivity
QVQLVESGGGLVQAGGSLRISCAASGYIFAVYAMGWYRQAPGKEREFVAVITWRGGSTYYADSVKGRFTISRDNAKNTVYLQMNSLKPEDTAVYYCAARWHFLTSSRFDYWGQGTQVTVSS	high polyreactivity
QVQLVESGGGLVQAGGSLRISCAASGYIFFGNAMGWYRQAPGKERELVAAIRGRGTSTYYADSVKGRFTISRDNAKNTVYLQMNSLKPEDTAVYYFAADVVRSNFYGTFLYDYDYWGQCTQVTVSS	low polyreactivity
QVQLVESGGGLVQAGGSLRISCAASGYIFGTYAMGWYRQAPGKERELVAAISSTGRTYYADSVKGRFTISLDNAMNNVYLQMNRLKPEYTAVYYCAADVRTPSEGYDYWGQGTQVTVSS	high polyreactivity
QVQLVESGGGLVQAGGSLRISCAASGYNSYSNAMGWYRQAPGKERELVASILSGGSTNYADSVKGRFTISRDNAKNTVYLQMNSLKPEDTAVSYCATRVRTRTGYQYYYWGQGTQVTVSS	high polyreactivity
QVQLVESGGGLVQAGGSLRISCAASGYTFGKNAMGWYRQAPGKERELVAGISSRGGSTYYADSVKGRFTISRDNAKNTLYLQMNSLKPEDTAVYYCAAVAYTGGPRKLGFNYWGQGTQVTVSS	high polyreactivity
QVQLVESGGGLVQAGGSLRISCAASGYTVKSYAMGWYRQAPGKERELVAAISNGGNTYYADSVKGRFTISRDNAKNTVYLQMNSLKPEDTAVYYCAARYGYFYSRYDHWGQGTQVTVSS	low polyreactivity
QVQLVESGGGLVQAGGSLRISCAASVSIFARYAMGWYRQAPGQERELVAAISSRGGSTYYADSVKGRFTISRDNAKNTVYLQMNSLKPEDTAVYYCNKGYLVRPGVYWGQGTQVTVSS	high polyreactivity
QVQLVESGGGLVQAGGSLRISCDASGSIYSSNALGWYSQAPGKERELVAAISSSGSRTYYADSVKGRFTISRDKALITVYVQMNSLIPVDTAVDYWAAVIRYTRSYDYWGQGTQVTVSS	high polyreactivity
QVQLVESGGGLVQAGGSLRISCPASGTFYYYGMGWSRQAPGKERELVAAISWSGTSTFYADSVKGRFTISRDNAKNTVYIQMKSLKPEDTAVYYCHKPKFDSSGHDYWGQGTQETVSS	low polyreactivity
QVQLVESGGGLVQAGGSLRISSAASGNIFLYYAMGWYRQAPGKERELVAYIDSSGASTYYADSVKGRFTISRDNAKNTVYLQMNSLKPEDTAVYFCASDEGTVGGQQLRPLMDYWGQGTQVTVSS	low polyreactivity
QVQLVESGGGLVQAGGSLRISSAASGRIFVTNAMRWYRQAPGKERELLAAITRGGNTNYADSVKGRFTISRDNAKNTVYLQMNSLKPEDTAVYYCAADTSYDSVYGYFPGYYYWGQGTQVTVSS	low polyreactivity
QVQLVESGGGLVQAGGSLRITCAASGIIFGSYAMGWYRQAPGKETELVAAISTSGGSTYYADSVKGRFTISRDNAKNTVYLQMNSLKPEDTAVYYCNKAGVYRDSSRYNYWGQGTQVTVSS	high polyreactivity
QVQLVESGGGLVQAGGSLRITCAASGSTFGPYVMGWYRQAPGKEMELVAAISLSGASTYYADSVKGRFTISRDNAKNNVYLQMISLKPEETAVYYCAAQTPYGMYYWGQGTQVTVSS	low polyreactivity
QVQLVESGGGLVQAGGSLRLCCAASGRIFAGNAMGWYRQAPGKEREFVAGISKGGGRTYYADSVKGRCTISRDNAKKTVYLQMNSLKPEDTAVYYCAALPPRASSDAGGWYVAEDYWGQGTQVTVSS	high polyreactivity
QVQLVESGGGLVQAGGSLRLCCAASGYIFGWYTMGWYRPAPGKERELVAAISGGGRTYYADSVKGRFTISRDNAKNTVYLQKNSLKPEDTAVYYCNAYSTYIKYDYWGQGTQVTVSS	high polyreactivity
QVQLVESGGGLVQAGGSLRLCCAAYGSIFARNSMGWYRHAPGKERELVAVITTGGRTYYADSVKGRFTISRDNAKNTVYLQMNSMKPEDTAVYYCATRVIYGNSGGYWGKGTQVTVSS	high polyreactivity
QVQLVESGGGLVQAGGSLRLICAASGFIFDSYAMGWYRQAPGKARELVAAISVNGGTTYYADSVKGRFTISRDNAKNTVYLQMISLKPEDTAVYFCNADLYYDVGQPMDYWGQGTQVTVSS	low polyreactivity
QVQLVESGGGLVQAGGSLRLICAASGFIFFSNAMGWYRQAPGKERELVAVIDRATSTYYADSVKGRFTISRDNAKNTFYLQLNSLKPEDTAVYYCNADGEEVYDFNYFLSFKGDYWGQGTQVTVSS	low polyreactivity
QVQLVESGGGLVQAGGSLRLICAASGFIFGKYVMGWYRQAAGKERELVAAITSSGGRTYYADSVKGRFTISRDNAKNTVYLQMNSLKPEDTGVYYCAARYVSYWPWFEYDYWGQGTQVTVSS	high polyreactivity
QVQLVESGGGLVQAGGSLRLICAASGFIFSYYAMGWYRQAPGKERELVAAISKTGGNTYYADSVKGRFTISRDYAKNTVYLQMNSLKPEDTAVYYCNALRGDWRDMGYWGQGTQVTVSS	high polyreactivity
QVQLVESGGGLVQAGGSLRLICAASGFIFWIYAMGWYRQAPGKEREFVAVITYRGDTTYYADSVKGRFTISRDNAKNTVYLQMNSLKPEDTAVYYCAAYTVQKYGYWGQGTQVTVSS	low polyreactivity

Sequence	polyreactivity (PSR sort gate)
QVQLVESGGGLVQAGGSLRLICAASGFNLEYYSMGWYRQATGKERELVAVITESDGNTYYPDSVKGRFTISRDTAKNTVYLQMYSLKPEDTALYYCAAPYSFIQGGIRRGYHGYVYWGQGTQVTVSS	low polyreactivity
QVQLVESGGGLVQAGGSLRLICAASGFTFAKYAMGSYTQAPGKERQLVAGITGNSGTTYYADSVKGRFTISRDNAKNTVYLQMNSLKPEDTAVYYCAAEEVSWNGTGDYWGQGTQVTVSS	high polyreactivity
QVQLVESGGGLVQAGGSLRLICAASGFTFGYYAMGWYRQAPGKEREFVARISWSGDSTYYADSVKGRFTISRDNAKNTVYLQMTSLKPEDTAVYYCAARFTRQMYYWGQGTQVTVSS	high polyreactivity
QVQLVESGGGLVQAGGSLRLICAASGFTFLVNAMGWYRQAPGKERELVAAISSGGSTYYADSVKGRFTISRDNAKNTVYLQMNSLKPEDTAVYYCAAPTDFLFWEFDYWGQGTQVTVSS	low polyreactivity
QVQLVESGGGLVQAGGSLRLICAASGFTFSGNTMGWYRQAPGKERELVATISRTGGITYYADSVKGRFTISRDNAKNTVYLQMNSLKPEDTAVYYCNRRYYYFVYPDDYWGQGTQVTVSS	high polyreactivity
QVQLVESGGGLVQAGGSLRLICAASGFTFSYNAMGWYRPAPGTERELVAVITKSGGSTNYADSVKGRFTISRDNAKNTVYLQRNSLKPEDTAVYYCNRQIKKLLTTHYYWGQGTQVTVSS	high polyreactivity
QVQLVESGGGLVQAGGSLRLICAASGFTFTQYVMGWYSQAPGKERELVAAINWSGGNTYYAESVKGRFTISRDNAKNTVYLQMNSLKPEDTAVYYCAAYRHRNGYDYWGQGTQVTVSS	high polyreactivity
QVQLVESGGGLVQAGGSLRLICAASGFTFWDYTMGWYIQAPGKERELVAAITRSGGRTYYADSVKGRFTISRDNENNTFYLQMNSLKTEDTAVYYCAAKIWSKDEKHDYWGQGTQVTVSS	high polyreactivity
QVQLVESGGGLVQAGGSLRLICAASGFTFYRYAMGWYRPAPGKERELVAAITNIAGSTYYADSVKGRFTISRDNAKNTLYLQMNSLKPEDTAVYYCNANRLRRYDYWGQGTQVTVSS	high polyreactivity
QVQLVESGGGLVQAGGSLRLICAASGFTIGANTMGWYREAPGKERELVAAITSGGRTYYADSVKGRFTISRDNAKNTVYLQMNSLKPEDTAVYYCAAGRPRTIFQEYGSWGQGTQVTVSS	high polyreactivity
QVQLVESGGGLVQAGGSLRLICAASGIIFAYYAMGWYRQSPGKERELVAAITWSGGRTYYADSVKGRFTISRDNAKNTVYLQMNSLKPEDTSVYYCAARFTRQMYYWGQGTQVTVSS	high polyreactivity
QVQLVESGGGLVQAGGSLRLICAASGIIFDDYAMVWYRQAPGNERELVAAISVSGGSTYYADSVKGRFTISRDNAKNTVYLQMNSLKPEDTAVYYCAARLRWRYSYDYWGQGTQVTVSS	high polyreactivity
QVQLVESGGGLVQAGGSLRLICAASGIIFPSYAMGWYRQAPGKERELVAGISLSGGSTYYADSVKGRFTISRDNAKNTVYLQMNSLKPEDTAVYYCDTRNHYFRALRYGYWGQGTLVTVSS	high polyreactivity
QVQLVESGGGLVQAGGSLRLICAASGIIFQYYAMGWYRQAPGKERELVAAISWSGGSTYYADSVKGRFTISRDNAKNTVYLQMNSVKPEETAVYYCNAVYYSRIVGVRIYDYWGQGTQVTVSS	low polyreactivity
QVQLVESGGGLVQAGGSLRLICAASGIIFTRYAMGWYRQAPGKERELVAAISTRGGSTYYADSVKGRFTISRDNAMNTVYLQMNSLKPEDTAVYYCAATNAKDGEMDYWGQGTQVTVSS	high polyreactivity
QVQLVESGGGLVQAGGSLRLICAASGIIFVGYAMGWYRQAPGKERELVAAIDGTGDSTYYADSVKGRFTISRDNAKNTVYLQMNSLKPEDTAVYYCDAEYDYRWWYGYDYWGQATQVTVSS	high polyreactivity
QVQLVESGGGLVQAGGSLRLICAASGIIFVSNAMGWYRQAPGKERELVATINWSDDSTYYADSVKGRFTISRDNAKYTVYLQMNSLKPEDTAVYYCNARPLRYVESDYWGQGTQVTVSS	low polyreactivity
QVQLVESGGGLVQAGGSLRLICAASGIILVYYDMGWYRQAPGKEMELVDTISRGGSTNYADSVMGRFTISRDNAKNTVYLQMISLKPEDTAVNYCAAGSYSIWVHLVRYYYWGQGTQVTVSS	high polyreactivity
QVQLVESGGGLVQAGGSLRLICAASGIIYYYYAMGWYRQAPGKERELVAAINFSVGGTYYADSVKGSFTNSRDNAKNSVYLQMNSQKPEDTAVYYCAKDIVIPATYVEYDYWGQGTQVTVSS	low polyreactivity
QVQLVESGGGLVQAGGSLRLICAASGILVYNAMGWYRQAPGKERELVAAISARGGRKYYADSVKGRFTISRDNAKNTVYLQMYSLKTEDTAVYYCATLETSGVNYWGQGTQVTVSS	high polyreactivity
QVQLVESGGGLVQAGGSLRLICAASGISFDGNPMGWYRQAPGKERELVASITSDSSTNYADSVKGRFTISRDNAKNTVYLQMKSLKPEDTAVYYCAADHWIAPRRDYWGQGTQVTVSS	low polyreactivity
